Source: the RNAGym collection of RNA variant scans (doi:10.1073/pnas.2313332121)
This sample holds only a part of the variants without activity.

B1: TPR 5TU (parent)
chain: GGAUCUUCUCGAUCUAACAAAAAAGACAAAUCUGCCACAAAGCUUGAGAGCAUCUUCGGAUGCAGAGGCGGCAGCCUUCGGUGGCGCGAUAGCGCCAACGUUCUCAACUAUGACACGCAAAACGCGUGCUCCGUUGAAUGGAGUUUAUCAUG

Variants of: B1
Assay: polymerase ribozyme fitness, log enrichment relative to wild type (log ratio); higher = more active; in vitro selection for triplet polymerase activity
Summary of the method: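 Libraries of mutants in each subunit of a heterodimeric triplet polymerase ribozyme were generated by PCR and transcribed. In triplicate, each went through one in vitro selection round: annealing with biotinylated primer, partner subunit and triplets; frozen incubation at −7 °C; gel excision of extended constructs; streptavidin-bead capture; RT-PCR. Fitness, taken from Illumina sequencing of input and output libraries, is the logarithm of a genotype's enrichment over wild-type enrichment, averaged across replicates with inverse-variance weights. The logarithm is base 2, and genotypes needed ≥10 input reads and ≥1 read per output to be kept.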

Variant	polymerase ribozyme fitness (log ratio)
C57U A73G G74A C114G U135A U151G	≤ -4.2
C57A G74A	-2.66
G58C A142U U146A	-1.03
C57U G86U C96A U109A U146A	-2.45
C57G G59A	-0.436
C57G G59C	-0.566
G58A A98G	0.621
C57G G59U A60G C85G A89U A97U G128A U148A	≤ -4.2
C57U G71U	-1.94
C57G G83U A147U	0.219
G58C U134G A150U	-3.62
G58A C69A U82G A120U U134C	-1.34
C57U U104C C116G A120U C123A	0.628
C57U A60G G133C G152U	-3.31
G58C G126U	-0.916
G58A G94A A106C	-0.37
C57U C76U C129G	-3.51
C57U C87G A107C C108U U135A U151C	≤ -4.2
C57U C87U C93A A107C	≤ -4.2
C57G U82C C95U C125A C131U U135C U146C	-3.38
G58A A60C G74A C85G C116G C123U C149G	≤ -4.2
C57A G92A	-3.13
C57A G92C	-0.41
C57U U145A	0.046

Variant	polymerase ribozyme fitness (log ratio)
C57U U145G	-0.309
C57U U146G	-0.656
C57U G83C C87A G94U U146C	≤ -4.2
G58C G94U C131U	-0.209
G58C C96U G128U	-3.69
C57U A107C	-3.3
C57U A64U G92C C105U	≤ -4.2
G58C C93U A110G	-3.82
C57U U111G	-4.17
G58C A107C U130G A137G A147G	≤ -4.2
G58A G92A U127C U135G G143U U151G	≤ -4.2
C57U G59C G83C	-1.17
C57U G81C C95A A122C	-0.59
C57U G58A G83A G86A C118U C123A	-1.76
G58C C116G	0.494
G58C C116U	0.354
C57G C95U U102G	-2.74
C57U C99G C105U	-1
G58A G84A A142U G152A	-2.68
G58C G59A U102G A121U U127C	-3.85
C57U A142U	0.471
G58A C76G C125U C132A G133C	≤ -4.2
G58A G83A	-0.976
G58A C63A	0.255

Variant	polymerase ribozyme fitness (log ratio)
G58A G81C G84A G133C U144G	-0.672
G58C C96G C125G G143U	≤ -4.2
G58C G59C	0.523
G58A C87U A89U A106U	-2.54
C57G C87U	-2.97
C57A C131G	-3.13
C57U G58A A60U C69U C76A G88U G141A	≤ -4.2
C57A U90A C103G	≤ -4.2
G58C C93A	-2.61
G58A A115C U135C G152U	≤ -4.2
G58A U146C	0.448
C57U G94U U127C C132U	-3.37
G58A G81A G86A C93U G112C C116U C149G	1.13
C57U G59C C69G C96A	-1.45
C57G A110U C123A	-4.11
G58A G83U A98U C103U	-1.15
G58C C87U U135C	-2.22
G58A C96G	-0.616
C57U G94U C99A	-1.79
G58A G81A C123U U146G A147G	-0.0286
G58A U82G C96A A142G A147G	-3.38
C57A U145C	0.674
G58C C87U C114U	-2.21
C57G C123G	-0.87

Variant	polymerase ribozyme fitness (log ratio)
C57U G92U	-0.682
G58C G124C	-0.411
G58C C76A G86A A147U	-2.24
C57G C93U	-1.72
C57U G84A C93U	-2.9
C57A G59C	0.0811
C57U G58C C79U	-1.86
C57U C85A	-1.63
C57U C85U	0.073
C57G G59A G81C U104G A120U	-1.84
G58A G94A U135G U144C	-1.98
C57A G70A U134C	-3.65
C57U A89U U101A C125U G141A U146A	≤ -4.2
G58A G80U U151G	≤ -4.2
C57U A60U C95A C105U C125A	-2.41
C57U G59A C75G A138G	-4.02
C57G A97U	-0.704
C57U A121U C129U	-0.101
C57G C85A	-3.21
G58C A66G	-3.76
C57U G86U A97C	-1.82
C57A U78G G86C A89U C96U A120U C129G	≤ -4.2
G58A G84A U104G	-0.568
G58C A60G C63U G84A	0.439

Variant	polymerase ribozyme fitness (log ratio)
C57G A73G U82A C96G U101C C116A	-3.9
G58C G67U A91U A107G C108U C116G C125U C129U	≤ -4.2
G58A C63U C93A C105A	-4.05
C57A G92C G133A	-4.05
G58C G88U C105A G141C U144G U146G	≤ -4.2
C57U C95U U101C	-0.863
C57U G59A A73G C79U	≤ -4.2
C57U A64U G92A A138U U145G A150C	≤ -4.2
C57U G58A U104G C105U	-3.63
C57A G83A	-0.934
C57U C87A	-4.12
C57G A142C	-0.312
C57U A73G G143U U145G	≤ -4.2
C57G C129G	-2.74
C57U C63A	0.923
G58A G59U C87U G136A	0.169
G58C C75U C95U C99G U135C	≤ -4.2
G58A G62C U82G A106G G141C	-4.01
C57G G59A A73U G88C	≤ -4.2
G58C A60G G81U G88A C108G G117C A119U G143C	≤ -4.2
C57U A64G	-3.91
G58A G84C	-1.94
C57G U82A C95G U134C	-1.35
G58C G65C A66C U77G U102A C132U	≤ -4.2

Variant	polymerase ribozyme fitness (log ratio)
C57U U61G C76A	≤ -4.2
C57U G59A G67A C93G	≤ -4.2
C57G U82A A91C A115G C125A C149A	≤ -4.2
C57G A91U A147U	≤ -4.2
C57A G58C G84A A91G	-3.28
C57U A115G U144C	≤ -4.2
G58C U77G C87G G152A	≤ -4.2
G58A A89U G94U	-3.19
C57U C75G G81A C87G A120G	≤ -4.2
C57U G84U	-2.27
G58A G141U	0.0168
G58A G141C	-0.279
C57U C85A C96G C116U G143C U148A	≤ -4.2
C57U C69U	-0.915
C57U G84A C99A	-1.59
C57U G62A C63U C87A G141A C149U	≤ -4.2
C57A G94C	0.0611
G58C G71C G92U C96U U145A	≤ -4.2
C57A C132U	-0.393
C57U G68A	-3.56
C57G A60C G81C C103A U111G A119C	≤ -4.2
C57U C95A	-0.112
C57U C149U	-1.28
C57U U127A U151G	≤ -4.2

Variant	polymerase ribozyme fitness (log ratio)
G58C U82A	0.644
C57G U61A G88A U104G	-4.19
G58C G92U A122G	-1.45
C57U U151G	-3.63
C57A G92C C123A	-0.277
C57U U82G	0.0517
C57U G68A C75G C76G C87A A98U U145C	≤ -4.2
C57U G141A	0.719
G58C C87A G136A U144G	≤ -4.2
C57U C116U U139C	≤ -4.2
C57U A73C	-1.36
C57U A73U	-0.507
G58A U61A	-0.894
C57G C85A C118U G143C	-4.1
G58C C93A G141C	-2.47
G58A G83A U109C A115U	≤ -4.2
G58A A73G C85G A98C	-1.02
C57U A147U	1.47
G58A A73U	-1.65
C57G U148A	-3.25
C57U G58C G86A U102A C116A	-2.47
G58C C118U U135C U145A	-1.79
C57U U78A G84A C95U U135G	≤ -4.2
